Data on eleven molecules can be found in article PMC8324831, “A synthetic nanobody targeting RBD protects hamsters from SARS-CoV-2 infection” (Nature Communications, 2021).

Positions count from the first letter of the chain named. Like-named read-outs stand apart in the source and are kept apart here.

Experiment [1] deals with SARS-CoV-2 S-RBD for crystallization (residues 330-531, Avi-tag and His-tag removed by 3C protease) (SARS-CoV-2, Wuhan-Hu-1 reference …, UniProt P0DTC2). The experiment is described as follows: crystal structure. To be noted: both partners purified.
The target in experiment [2] is T1, SARS-CoV-2 S-RBD with Avi-tag and deca-His tag (residues 330-531) (SARS-CoV-2, UniProt P0DTC2, biotin on the Avi tag (BirA) where immobilised on streptavidin sensors or used in ELISA and FSEC). The experiment is described as follows: ELISA; Myc-tagged sybody from lysate captured by anti-Myc antibody on protein A-coated plate; 50 nM biotinylated RBD added; streptavidin-HRP; room temperature, TBST. The settings on record: one partner purified. Background: In an ELISA, binding on a coated surface is turned into a signal by an enzyme label.

In experiment [3] the target is T1, SARS-CoV-2 S-RBD with Avi-tag and …. As to the kind of experiment: cell-based or functional assay.
For experiment [4] the target is unchanged. As to the kind of experiment: BLI; Octet RED96; biotinylated RBD immobilised on SA sensor; sybodies as analytes; 30 °C; 0.005% Tween 20, 150 mM NaCl, 20 mM Tris HCl pH 8.0; fitted for 1:1 stoichiometry. The settings on record: both partners purified. Background: BLI is a label-free optical method that tracks binding on a fibre tip over time.
For experiment [5] the target is unchanged. The experiment is described as follows: SEC. To be noted: one partner purified.
The target is the same in experiment [6].
Experiment [7] has as its target SARS-CoV-2 S-RBD with Avi-tag and deca-His tag (residues 330-531) (SARS-CoV-2, UniProt P0DTC2 330-531). As to the kind of experiment: cell-based or functional assay.

B1: sybody SR4 (VHH)
VHH: QVQLVESGGGLVQAGGSLRLSCAASGFPVYSWNMWWYRQAPGKEREWVAAIESHGDSTRYADSVKGRFTISRDNAKNTVYLQMNSLKPEDTAVYYCYVWVGHTYYGQGTQVTVS
As for B1, the binding result in experiment [1] and in experiment [2] was “binds” each time.

B2: sybody MR3 (VHH)
VHH: QVQLVESGGGLVQAGGSLRLSCAASGFPVNAHFMYWYRQAPGKEREWVAAIYSYGRTLYADSVKGRFTISRDNAKNTVYLQMNSLKPEDTAVYYCNVKDYGAASWEYDYWGQGTQVTVS
One may read the Kd as a measure of binding affinity in units of concentration. Read a high Kd as a looser complex. The koff is the first-order rate constant of dissociation. Read a low koff as slow dissociation. Take B2: in experiment [3], the “IC50 of neutralisation of SARS-CoV-2 S pseudovirus on VeroE6-hACE2 cells (blocks RBD-ACE2)” value was found to be 0.42 µg/mL. Further, in experiment [4], the affinity, expressed as Kd, was 1 nM and the koff is 0.00023 s⁻¹.

B3: sybody MR4 (VHH)
VHH: QVQLVESGGGLVQAGGSLRLSCAASGFPMYAWEMAWYRQAPGKEREWVAAIRSMGVHTHYSDSVKGRFTISRDNAKNTVYLQMNSLKPEDTAVYYCNVKDFGGHQAYYDYWGQGTQVTVS
Consider B3, for which the binding result in experiment [5] is listed as “binds”.

B4: LR18 (VHH)
VHH: QVQLVESGGGSVQAGGSLRLSCAASGSISSITYLGWFRQAPGKEREGVAALVTENGHTYYADSVKGRFTVSLDNAKNTVYLQMNSLKPEDTALYYCAAATWGYEWPLYSNDYFYWGQGTQVTVS
Consider B4, for which, in experiment [6], the binding result is listed as “binds”.

B5: sybody LR1 (VHH)
VHH: B4 VHH with V52I, E54D, N55S, H57R, T100E, S109Y, N110A, D111S, Y112S, F113W
As for B5, the binding result in experiment [5] is recorded as “binds”.

B6: sybody LR5 (VHH)
VHH: B4 VHH with V52I, E54S, H57R, E104H, Y108G, S109A, N110W, F113W
As for B6, the binding result in experiment [5] is reported as “binds”.

B7: LR15 (VHH)
VHH: QVQLVESGGGSVQAGGSLRLSCAASGSISSITYLGWFRQAPGKEREGVAALKTASGQTYYADSVKGRFTVSLDNAKNTVYLQMNSLKPEDTALYYCAAADWGYNWPLIREEYEYWGQGTQVTVS
Take B7: in experiment [6], the binding result is “binds”.

B8: LR16 (VHH)
VHH: B7 VHH with K52Y, A54T, S55H, Q57Y, W105I, I108N, R109I, E110T, E111D, E113W
For the molecule B8, in experiment [6], the binding result is on record as “binds”.

B9: Fc-MR3 (Fc fusion)
chain: GSSSQVQLVESGGGLVQAGGSLRLSCAASGFPVNAHFMYWYRQAPGKEREWVAAIYSYGRTLYADSVKGRFTISRDNAKNTVYLQMNSLKPEDTAVYYCNVKDYGAASWEYDYWGQGTQVTVSERKCCVECPPCPAPPVAGPSVFLFPPKPKDTLMISRTPEVTCVVVDVSHEDPEVQFNWYVDGVEVHNAKTKPREEQFNSTFRVVSVLTVVHQDWLNGKEYKCKVSNKGLPAPIEKTISKTKGQPREPQVYTLPPSREEMTKNQVSLTCLVKGFYPSDIAVEWESNGQPENNYKTTPPMLDSDGSFFLYSKLTVDKSRWQQGNVFSCSVMHEALHNHYTQKSLSLSPGK
Take B9: the “IC50 of neutralisation of SARS-CoV-2 S pseudovirus on VeroE6-hACE2 cells (blocks RBD-ACE2)” value in experiment [7] came out at 42 ng/mL.

B10: LR17 (VHH)
VHH: QVQLVESGGGSVQAGGSLRLSCAASGSIAHIKYLGWFRQAPGKEREGVAALMTRHGQTYYADSVKGRFTVSLDNAKNTVYLQMNSLKPEDTALYYCAAAYYGANFPLFQTGYTYWGQGTQVTVS
For the molecule B10, in experiment [6], the binding result is on record as “binds”.

B11: sybody MR17 (VHH)
VHH: QVQLVESGGGLVQAGGSLRLSCAASGFPVEVWRMEWYRQAPGKEREGVAAIESYGHGTRYADSVKGRFTISRDNAKNTVYLQMNSLKPEDTAVYYCNVKDDGQLAYHYDYWGQGTQVTVS
In turn, B11 displayed a dissociation constant (Kd) in experiment [4] of 83.7 nM.
